In patent US9878045B2, “Triorthogonal reagents for dual protein conjugation” (REGENTS OF THE UNIVERSITY OF MINNESOTA, priority 2013, dated 2018):

Assays:
Test in all cases: Continuous fluorescence-based PFTase enzyme assay, prenylation of N-dansyl-GCVIA (2)
Assay type in all cases: biochemical, Yeast
PFTase = molecular target: T1, PFTase (Saccharomyces cerevisiae, UniProt P22007+P29703)
T1 sequence (P22007 1-431): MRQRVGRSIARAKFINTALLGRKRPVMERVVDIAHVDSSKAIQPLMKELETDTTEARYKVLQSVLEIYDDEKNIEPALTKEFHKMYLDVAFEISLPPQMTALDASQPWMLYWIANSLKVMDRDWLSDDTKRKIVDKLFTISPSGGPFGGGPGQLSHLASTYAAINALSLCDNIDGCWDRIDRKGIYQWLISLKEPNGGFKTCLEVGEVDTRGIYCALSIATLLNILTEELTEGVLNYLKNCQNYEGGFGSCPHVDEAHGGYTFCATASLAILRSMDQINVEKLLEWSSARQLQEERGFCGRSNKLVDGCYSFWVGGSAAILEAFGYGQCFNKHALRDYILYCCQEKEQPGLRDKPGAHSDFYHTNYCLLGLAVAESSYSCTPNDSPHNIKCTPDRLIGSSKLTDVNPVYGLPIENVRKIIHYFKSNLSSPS
T1 sequence (P29703 1-316): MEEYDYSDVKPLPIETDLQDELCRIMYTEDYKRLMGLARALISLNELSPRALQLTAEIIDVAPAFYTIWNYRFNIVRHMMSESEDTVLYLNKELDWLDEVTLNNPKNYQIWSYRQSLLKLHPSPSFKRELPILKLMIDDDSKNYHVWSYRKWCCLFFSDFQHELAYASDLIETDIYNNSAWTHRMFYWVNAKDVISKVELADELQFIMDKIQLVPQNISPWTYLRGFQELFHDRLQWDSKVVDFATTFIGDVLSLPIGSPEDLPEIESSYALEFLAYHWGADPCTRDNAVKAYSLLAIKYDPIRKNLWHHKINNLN
Procedure: (§1) Next, a kinetic analysis of that reaction was performed using varying concentrations of 1 and N-dansyl-GCVIA (SEQ ID NO: 2) (2) in the presence of PFTase showing that the enzymatic process obeyed saturation kinetics. Steady-state kinetic parameters for the prenylation reaction using the bifunctional aldehyde-alkyne analogue are shown in FIG. 4. […] Nevertheless, despite this lower activity with 1, using elevated levels of PFTase (200 nM), it is relatively easy to drive these enzymatic reactions to completion in 2 hours.
Enzymatic reaction mixtures contained Tris.HCl (50 mM, pH 7.5), MgCl2 (10 mM), ZnCl2 (10 μM), DTT (5.0 mM), 2.4 μN-dansyl-GCVIA (SEQ ID NO: 2) (2), 0.040% (w/v) n-dodecyl-β-D-maltoside PFTase (80 nM), and varying concentrations of 1 (0-50 μM), in a final volume of 250 μL. The reaction mixtures were equilibrated at 30 ° C. for 1 min, initiated by the addition of PFTase, and monitored for an increase in fluorescence (λex=340 nm, λem=505 nm) for approximately 20 min. The initial rates of formation of products were obtained as slopes in IU/min using least squares analysis. Corrections were applied to all the rate calculations based on the difference between the fluorescence intensity of the prenylated product and the starting peptide. Assuming 100% conversion, the difference corresponds only to the fluorescence of the total amount of the product. […]

[1] = substrate: CC(C)=CCC/C(C)=C/CC/C(C)=C/CO[P@@](=O)(O)OP(=O)(O)O; settings: other: single peptide concentration 2.4 μM; pH 7.5; 30.0 °C
Procedure: as §1
(§2) Enzymatic reaction mixtures contained Tris.HCl (50 mM, pH 7.5), MgCl2 (10 mM), ZnCl2 (10 μM), DTT (5.0 mM), 2.4 μN-dansyl-GCVIA (SEQ ID NO: 2) (2), 0.040% (w/v) n-dodecyl-β-D-maltoside PFTase (80 nM), and varying concentrations of 1 (0-50 μM), in a final volume of 250 μL. The reaction mixtures were equilibrated at 30 ° C. for 1 min, initiated by the addition of PFTase, and monitored for an increase in fluorescence (λex=340 nm, λem=505 nm) for approximately 20 min. The initial rates of formation of products were obtained as slopes in IU/min using least squares analysis. Corrections were applied to all the rate calculations based on the difference between the fluorescence intensity of the prenylated product and the starting peptide. Assuming 100% conversion, the difference corresponds only to the fluorescence of the total amount of the product. The slope was then divided by the fluorescence difference followed by multiplying by the total concentration of peptide (2.4 μM) which then gives the rate of formation of product in μM/s. It should be noted that the KM values reported here are actually apparent KM values, since the measurements were performed in only a single peptide concentration. The data were fit to a Michaelis-Menten model
(§3) [formula] using a nonlinear regression program, to determine kcat and KM (FIG. 4).

[2] = substrate: C#Cc1cc(C=O)cc(OC/C(C)=C/CC/C(C)=C/COP(=O)(O)OP(=O)(O)O)c1; settings: other: single peptide concentration 2.4 μM; pH 7.5; 30.0 °C
Procedure: as §1, §2, §3

**Q.** How did the “kcat lower than the kcat for FPP” value (PFTase; compared with FPP) turn out when `C#Cc1cc(C=O)cc(OC/C(C)=C/CC/C(C)=C/COP(=O)(O)OP(=O)(O)O)c1` [Compound 1, (2E,6E)-8-(3-ethynyl-5-formylphenoxy)-3,7-dimethylocta-2,6-dien-1-yl diphosphate] was run?
**A.** 42 fold

**Q.** What about the “substrate for the enzyme” value (PFTase; model peptide N-dansyl-GCVIA (2)) of the same molecule?
**A.** alternative substrate

B1: PFTase (Saccharomyces cerevisiae S288C) (protein)
chain 1: MRQRVGRSIARAKFINTALLGRKRPVMERVVDIAHVDSSKAIQPLMKELETDTTEARYKVLQSVLEIYDDEKNIEPALTKEFHKMYLDVAFEISLPPQMTALDASQPWMLYWIANSLKVMDRDWLSDDTKRKIVDKLFTISPSGGPFGGGPGQLSHLASTYAAINALSLCDNIDGCWDRIDRKGIYQWLISLKEPNGGFKTCLEVGEVDTRGIYCALSIATLLNILTEELTEGVLNYLKNCQNYEGGFGSCPHVDEAHGGYTFCATASLAILRSMDQINVEKLLEWSSARQLQEERGFCGRSNKLVDGCYSFWVGGSAAILEAFGYGQCFNKHALRDYILYCCQEKEQPGLRDKPGAHSDFYHTNYCLLGLAVAESSYSCTPNDSPHNIKCTPDRLIGSSKLTDVNPVYGLPIENVRKIIHYFKSNLSSPS
chain 2: MEEYDYSDVKPLPIETDLQDELCRIMYTEDYKRLMGLARALISLNELSPRALQLTAEIIDVAPAFYTIWNYRFNIVRHMMSESEDTVLYLNKELDWLDEVTLNNPKNYQIWSYRQSLLKLHPSPSFKRELPILKLMIDDDSKNYHVWSYRKWCCLFFSDFQHELAYASDLIETDIYNNSAWTHRMFYWVNAKDVISKVELADELQFIMDKIQLVPQNISPWTYLRGFQELFHDRLQWDSKVVDFATTFIGDVLSLPIGSPEDLPEIESSYALEFLAYHWGADPCTRDNAVKAYSLLAIKYDPIRKNLWHHKINNLN
notes: made in house
**Q.** B1 was tested. Which Km [1] did it give?
**A.** 1.71 µM

**Q.** What about the Km [2] of the same molecule?
**A.** 2.52 µM

**Q.** And the kcat [2]?
**A.** 0.0123 s⁻¹
